According to publication PMC10711565:
Where two headings read alike, the source gives them in different places.

Assays:
Test in all cases: fluorescence anisotropy
[1] = biological target: T1, PCBP2 (UniProt Q15366 1-365)
[2] = biological target: T1, PCBP2; remark: listed apart in the source
[3] = biological target: T1, PCBP2; remark: listed apart in the source

T1 sequence (Q15366 whole entry): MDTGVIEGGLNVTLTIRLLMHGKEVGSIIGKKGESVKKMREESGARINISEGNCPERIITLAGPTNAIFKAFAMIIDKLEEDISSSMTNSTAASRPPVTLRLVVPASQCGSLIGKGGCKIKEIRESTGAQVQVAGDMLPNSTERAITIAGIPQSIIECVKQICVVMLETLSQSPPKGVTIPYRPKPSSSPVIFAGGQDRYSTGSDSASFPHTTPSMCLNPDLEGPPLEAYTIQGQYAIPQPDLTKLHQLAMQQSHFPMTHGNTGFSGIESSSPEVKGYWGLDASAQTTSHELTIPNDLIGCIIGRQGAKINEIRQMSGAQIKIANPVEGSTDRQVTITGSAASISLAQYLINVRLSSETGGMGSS

Row | Binder | Kd [1] [µM] | further results
1 | UGGAGUGUGACAAUGGUGUUUG (ssRNA) [miR-122] | 5.33 ± 0.47 | –
2 | GCCAGCCCCCUGAUGGGGGCGACACUCCACCAUGAAUCACUCCCCUG (structured_RNA) [HCV47] | – | binding result [2]: binds
3 | GCCAGCCCCCUGAUGGGGGCGACACUCCACCAUGAAUCACUCCCC (structured_RNA) [HCV45] | 0.667 ± 0.034 | –
4 | HCV45:miR-122 complex (structured_RNA) RNA 1: GCCAGCCCCCUGAUGGGGGCGACACUCCACCAUGAAUCACUCCCC RNA 2: UGGAGUGUGACAAUGGUGUUUG | – | Kd [3]: 9.88 ± 1.6 µM
